{"source": "the nanobody polyreactivity screen of Harvey et al. (2022)"}
{"experiment": "yeast display, Sf9 membrane polyspecificity reagent, FACS + sequencing; frameworks hold sequencing errors", "how_it_was_run": "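Polyreactivity labels are assigned by the sorting gate from which each nanobody was recovered. The gates were low and high (top ~1%), set on anti-HA fluorescence for expression and streptavidin fluorescence for reagent binding. Before sorting, galactose-induced (36–48 hours) yeast display cells were stained for 1 hour at 4 °C with 10% biotinylated, detergent-solubilized Sf9 membrane reagent.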"}
{"sequence": "QVHLVESGGGLVQAGGSLRLSCAASGSTFYYTAMGWYRQPPGKESELVAAISRGGGSTYYADSVKGRFTISRDNAKNTVYVQMNSLKPEDTAVYYCAARRVGGGFYTWRNPAYEYWGQGTQVTVSS", "polyreactivity (PSR sort gate)": "high polyreactivity"}
{"sequence": "QVHLVESGGGLVQAGGSLRLSCAASGSTIFLYMGWYRQAPGKERELVAAITVSGGSTYYADSVKGRFTISRDNAKNTVYLQMNSLKPEDTAVYYCNADWVLRYDYWGLGTQVTVSS", "polyreactivity (PSR sort gate)": "low polyreactivity"}
{"sequence": "QVHLVESGGGLVQAGGSLRLSCAASGSTLGRYAMGWYRQAPGKERELVAAISWRGGSTYYADSVKGRFTISRDNAKNTDYLQMHSLKPEDTAVYYCADTYRFSEYYYWGQGTQVTVSS", "polyreactivity (PSR sort gate)": "high polyreactivity"}
{"sequence": "QVHLVESGGGLVQAGGSLRLSCAASGSTLSFYAMGWYRQAPGKERELVAAISYSTGTTYYADSVKGRFTISRDNAKNTVYLQMNSLKPEDSAVYYCAARWVWLHSRYDYWGQGTQVTVSS", "polyreactivity (PSR sort gate)": "high polyreactivity"}
{"sequence": "QVHLVESGGGLVQAGGSLRLSCAASGSTLVTNAIGWYRQAPGKERELVAAITFSGGTTYYADSVKGRFTISRDNAKNTVYLQLNSLKPEDTAVYYCAAENWLEYVGYDFWGQGTHVTVSS", "polyreactivity (PSR sort gate)": "high polyreactivity"}
{"sequence": "QVHLVESGGGLVQAGGSLRLSCAASGSTNYYAMGRYRQAPGKEREFVSAISRDASSTYYADSVKGRFTISRDNAKNTVYLQMNSLKPEDTAVYYCAARIIRFSTSADKLVTSRYYYWGQGTQVTVSS", "polyreactivity (PSR sort gate)": "high polyreactivity"}
{"sequence": "QVHLVESGGGLVQAGGSLRLSCAASVRTFYRNAMGWYRQAPGKERELVAAITRSGSTNYADSVKGRFTISRDNAKNTVYLQMNSLKPEDTAVYYCAAKFFRNTYSYGMDYWGQGTQVTVSS", "polyreactivity (PSR sort gate)": "high polyreactivity"}
{"sequence": "QVHLVESGGGLVQAGGSLRLSCAATGRTFAGYAMGWYRQAPGKERQLVAAITNGGSTKYADSVKGRFTISRDNAKNSVYLQMNSLKPEDTAVYYCKARKRFYSGNTLMYYWGQGTQVTVSS", "polyreactivity (PSR sort gate)": "high polyreactivity"}
{"sequence": "QVHLVESGGGLVQAGGSLRLSCAATGSTFPFYTMGWYRQAPGKERELVASISVKGDTTYYADSVKGRFTISRDNAKNTVYLQMNSLKPDDTAVYYCATGPYIWQEWSPGFEYWGQGTQVTVSS", "polyreactivity (PSR sort gate)": "low polyreactivity"}
{"sequence": "QVHLVESGGGLVQAGGSLRLSCAAYGFIFYPYAMGWNRQEPGKERELVAAIDWNGGGTYYADSVKGRFTISRDNAKNTVYLQMNSLKPEDTAVYYCNTYGAYTFDYWGQGTQVTVSS", "polyreactivity (PSR sort gate)": "high polyreactivity"}
{"sequence": "QVHLVESGGGLVQAGGSLRLSCADSGLTFVFYAMGWYRPAPGKERELVAAISWSTGRTYYPDSVKGRFTISRDTAKNTVYLQMNSLNPEDSAVYYCAASYLGRKYVYWGQGTQVTVSS", "polyreactivity (PSR sort gate)": "high polyreactivity"}
{"sequence": "QVHLVESGGGLVQAGGSLRLSCADSGRIILDYAMGWYRQAPGKERELVAAITWGGGSTNYADSVKGRFTNSRDNAKNTVYLQMNRLKPEDTAVYYCNADPHDQYDYWGKGTQVTVSS", "polyreactivity (PSR sort gate)": "low polyreactivity"}
{"sequence": "QVHLVESGGGLVQAGGSLRLSCADSGSTFTSYAMGWYRQAPGKERDLVAAINYSGGSTYYADSVKGRFTISRDNAKNTVYLQMNSLKPEDTAVYYCAADGYIRQYVTYYYWGKGTQVTVSS", "polyreactivity (PSR sort gate)": "low polyreactivity"}
{"sequence": "QVHLVESGGGLVQAGGSLRLSCAPSGFTFGYNAMGWYRQAPGKERELVAAISYRDGSTYYADSVKGRFTISRDTAKNTVYLQMNSLKPEDTAVYYCAAEVWYPGWGYDYWGQGTQVTVSS", "polyreactivity (PSR sort gate)": "high polyreactivity"}
{"sequence": "QVHLVESGGGLVQAGGSLRLSCASSGSIFRWYAMGWYRPAPGKERELVAAISTSGGNTYYADSVKGRFTISRDNAKNTVYLQMNSLKPEDTAVYYCNALWYRSLSYRYDYWGQGTQVTVSS", "polyreactivity (PSR sort gate)": "high polyreactivity"}
{"sequence": "QVHLVESGGGLVQAGGSLRLSCASSGSTFGYYAMGWYRQAPGKERELVAAITGRGGSTYYADSVKGRFTISRDNAKNTVYLQLISLKQEDTAVYYCAVGKYRLYYSGAYGYWGQGTQVTVSS", "polyreactivity (PSR sort gate)": "high polyreactivity"}
{"sequence": "QVHLVESGGGLVQAGGSLRLSCASSGSTFRSYGMGWYRPAPGKERELVAAISSSGGSTYYADSVKGRFTISRDNAKNTVYLQMNSLKPEDSAVYYCAAGSRLVSARLYYWGQGTQVTVSS", "polyreactivity (PSR sort gate)": "high polyreactivity"}
{"sequence": "QVHLVESGGGLVQAGGSLRLSCDASGRLIARYAMGWHRPAPGKERELVAAISSGGRTYYADSVKGRFTISRDNAKNTVYLQMNSLKPEDTAVYYCAASSGGATRGHDYWGQGTQVTVSS", "polyreactivity (PSR sort gate)": "high polyreactivity"}
{"sequence": "QVHLVESGGGLVQAGGSLRLSCDASGSTFYCYAMGWYRQAPGKERELVASISWSGGRSYYADSVKGRFTISRDNAKNTDYLQMNSLYPEDTAVYYCAARRKGRYDYWGQGTQVTVSS", "polyreactivity (PSR sort gate)": "high polyreactivity"}
{"sequence": "QVHLVESGGGLVQAGGSLRLSCPASGSTIRNYAMGLYRQAPGKERELVAAITKRGGTTYYADSVKGRFTISRDNAKNTVYLQMNSLKPEDTAVYYCAIGYNSSPFDYWGQGTQVTVSS", "polyreactivity (PSR sort gate)": "high polyreactivity"}
{"sequence": "QVHLVESGGGLVQAGGSLRLSCSASGIIFYVYTMGWYRQARGKERELVAAISGSGGSTTYADSVKGRFTISRDNAKNTVYLQMNSLKPEDTAVYYCNAKKWFYRWCKFSEFDYWGQGTQVTVSS", "polyreactivity (PSR sort gate)": "high polyreactivity"}
{"sequence": "QVHLVESGGGLVQAGGSLRLSCSASGSIFAINVMGWYRQAPGKEREFVAAITWSGGSTYYADSVKGRVTISRDNAKNTVYLQMFSLKPEDTAVYYCNARYPYKRRDYDYWGQGTQVTVSS", "polyreactivity (PSR sort gate)": "high polyreactivity"}
{"sequence": "QVHLVESGGGLVQAGGSLRLSCSASGSTFFPYAMGWYRQAPGKERELVAAITSGGRTKYADSVKGRFTISRDNAKNTVYLQMNSLKPEDNAVYYCAARGLIKEYGGPYRRFGYWGQGTKVTVSS", "polyreactivity (PSR sort gate)": "high polyreactivity"}
{"sequence": "QVHLVESGGGLVQAGGSLRLSFAASRSIFSKYVMGWYRQAPGKERELVASITSGGRTNYADSVKGRFTISRDNAKNTVYLQMNSLKPEDTAVYYCAARAFKTWYRSGVDYWGQGTQVTVSS", "polyreactivity (PSR sort gate)": "low polyreactivity"}
{"sequence": "QVHLVESGGGLVQAGGSLRLSSAASGITFDDYAMGWYRQAPGKERELVAAISVSGGDTYYADSVKGRFTISRDNAKNTVYLQMNSLKPEVTAVYYCAAEVVSPRWYDYWGQGTQLTVSS", "polyreactivity (PSR sort gate)": "low polyreactivity"}
{"sequence": "QVHLVESGGGLVQAGGSLRLSSAASGSIFQYNAMGWYRQAPGKERELVAGITTGGDTNYADSVKGRFTISRDNAKNTVYLHMNSLKPEDTAVYYCAARFGQWVSAYDYWGQGTQVTVSS", "polyreactivity (PSR sort gate)": "low polyreactivity"}
{"sequence": "QVHLVESGGGLVQAGGSLRLTCAASGIIFLRYAIGWYRQAPGKERDLVAAITRGGITYYADSVKGRFTISRDNAKNTVYLQMNSLKPEDTAVYYCAATYSGNYSMCRGYDYWGQGTQVTVSS", "polyreactivity (PSR sort gate)": "low polyreactivity"}
{"sequence": "QVHLVESGGGLVQAGGSLRLTCAASGIIFRLYAMGWYRQAPGKEREFVARISKRGGSTYYADSVKGRFTISRDNSKNTVYLQMNSLKPEDTAVYYCAADAPLSYYHDYDYWGQGTQVTVSS", "polyreactivity (PSR sort gate)": "high polyreactivity"}
{"sequence": "QVHLVESGGGLVQAGGSLRLTCAASGSIFLGHAMGWYRQAPGNERDLVAAISSITGRTYYADSVKGRFTISRDNAKNNVYLHMNSLKPEDTAVYYCNKVSRSFIVNTDDYWGQGTQVTVSS", "polyreactivity (PSR sort gate)": "high polyreactivity"}
{"sequence": "QVHLVESGGGLVQAGGSRRLSCAASGRISTLNALGWYRQAPGKVWEFVAAISWRGGSTYYADSVKGRFTISRDNAKNTVYVQMNSLKPEDTAVYYCAARPYTLAFYRFGYWGQGTKVTVSS", "polyreactivity (PSR sort gate)": "high polyreactivity"}
{"sequence": "QVHLVESGGGLVQAGGSRRLSCAASGSIFRWYAMGWSRQAPGKERELVAAITRSGGRTYYADSVKGRFTISRDNAKNTVYLQMNSLKPEDTAVYYCAAVARTVPSYSYNYWGQGTQVTVSS", "polyreactivity (PSR sort gate)": "high polyreactivity"}
{"sequence": "QVHLVESGGGLVQAGVSLRLSCAASGRTVVNAMGWYRQAPGKERELVAAISSNGGRTYYADSVKGRFTISRDNAKHSVYLQMNSLKPEDTAVYYCAAYNTHRYDYWGQGTQVTVSS", "polyreactivity (PSR sort gate)": "high polyreactivity"}
{"sequence": "QVHLVESGGGLVQARGSLRLSCAASGSTIGYNTMVWYRQAPGKERELVAAITSGGRTYYADSVKGRFTISRDYAKNTVYLQMNSLKPEDSAVYYCAAYYWWGYPENEYWGQGTQVTVSS", "polyreactivity (PSR sort gate)": "high polyreactivity"}
{"sequence": "QVHLVESGGGLVQGGGSLRLSCAASGGTIYYYAMGWYRQAPGKERELDAANRCSGGSTYYADSVKGRFTISRDIAKNTVSLQMNSLKPEDTAVYYCPSRGGNPKGYGYLAFNYWGQGTQVTVSS", "polyreactivity (PSR sort gate)": "high polyreactivity"}
{"sequence": "QVHLVESGGGLVQPGGSLRLSCAASGFPFYINAMGWYRQAPGTERELVAAITIGSTTYYADSVKGRCTISRDNAKNTVYLQMNSLKPEDTAVYYCAAEVWRDYTSRLYDYWGQGTQVTVSS", "polyreactivity (PSR sort gate)": "low polyreactivity"}
{"sequence": "QVHLVESGGGLVQSGGSLRLTCAASGRTFSQYAMGWYRQAPWKERDLVAAISWSGGSTYYADSVKGRFTFSRDNAKNTVYLEMNSLKPEDTAVYYCAAVGKGSARSSYQVLYDYWGQGTQVNVSS", "polyreactivity (PSR sort gate)": "low polyreactivity"}
{"sequence": "QVHLVESGGRLVQAGGSLRLSCAASGSTFGYYAMVWYRHAPGKDRELVAAITSGASTYYADSVKGRFTISRDNAKKTVYLQMNSLKPEDTAVYYCAARRWRKYYSGYNYWGQGTQVTVSA", "polyreactivity (PSR sort gate)": "high polyreactivity"}
{"sequence": "QVHLVESGGVLVQAGGSLRLSCAASGRIFYRYAMGWYRQAPGKERELVAAITHRGGSTYYADSVKGRFTISRDNAKNTVYLQMNSLKPEDTAVYYCAGRITEAVADYVGHKPYDYWGQGTQVTVSS", "polyreactivity (PSR sort gate)": "low polyreactivity"}
{"sequence": "QVHLVESGRGFVQAGGSLRLSCAASAFTFHSYAMGWYRQAPGKERELVASISSSGSTNYADSVKGRFTISRDNEKNTVYLQMISLKPEDTAVSYCAAESRYPFIYEYWGQVTQVTVSS", "polyreactivity (PSR sort gate)": "low polyreactivity"}
{"sequence": "QVHLVESGVGLVQAGGSLRLSCAASGITFGYYAMGWYRQAPGKERENVAAITRRGGSTYYADSVKGRFTISRDNAKNTVYLQMNSLKPVDTAVYYCAAVSYRYWFIEDNYWGQGTQVTVSS", "polyreactivity (PSR sort gate)": "high polyreactivity"}
{"sequence": "QVHLVESGVGLVQAGGSLRLSCAASGQIFPYYAMGWYRPAPGKETELVAAITSGGGTYYADSVKGRFTISRDNAKNTVYLQMNSLKPEDTAVYYCAVGSYGHPKHRRNLDYWGQGTQVTVSS", "polyreactivity (PSR sort gate)": "low polyreactivity"}
{"sequence": "QVHLVESGVGLVQAGGSLRLSCASSGSTFYAYAMGWYRQAPGKERELVAAIDSGGSTYYADSVKGRFTISRDNAKNTVYLPMNILKPEDSAVYYCAVRHRYTRAYWGRDYWGQGTKVTVSS", "polyreactivity (PSR sort gate)": "low polyreactivity"}
{"sequence": "QVHLVESGVGLVQAGGSLRLSCASSGSTYKPNALGWYSQAPGKESEFVAAITSGSTYYADTVKGRYTISRDNAKYNVYLQMNSLKPEDTAVYYCATSVRGKSPYRKSGSYYYWGQGTQVTVSS", "polyreactivity (PSR sort gate)": "high polyreactivity"}
